Test results from US20240270846A1 (published 2024).

target: T1, CD3 epsilon homodimer protein (UniProt P07766 23-126); test: SPR (Biacore T200), CD3 epsilon homodimer on CM4 chip, one-arm antibody as analyte; ratio to unaltered CE115HA000;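 further: surface plasmon resonance run at 25 °C with HBS-EP+ as running buffer, CD3 epsilon homodimer attached by amine coupling, antibody passed over as analyte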
T1 construct: Construct of the homodimer protein is not described; also called CD3 (CD3 epsilon)
T1 sequence (P07766 23-126): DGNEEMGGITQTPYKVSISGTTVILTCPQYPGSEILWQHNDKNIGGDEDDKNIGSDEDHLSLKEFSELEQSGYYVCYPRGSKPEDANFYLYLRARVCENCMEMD

| Binder | KD ratio (KD value of CE115HA000/KD value of the altered form) |
| --- | --- |
| CE115HA000 H96R one-arm antibody (antibody, human IgG1, kappa, L234A L235A, N297A, name in Kabat numbering, one-arm antibody) heavy: QVQLVESGGGVVQPGRSLRLSCAASGFTFSNAWMHWVRQAPGKGLEWVAQIKAKSNNYATYYAESVKGRFTISRDDSKNSLYLQMNSLKTEDTAVYYCRYVRYGAYYGVDAWGQGTTVTVSSASTKGPSVFPLAPSSKSTSGGTAALGCLVKDYFPEPVTVSWNSGALTSGVHTFPAVLQSSGLYSLSSVVTVPSSSLGTQTYICNVNHKPSNTKVDKKVEPKSCDKTHTCPPCPAPEAAGGPSVFLFPPKPKDTLMISRTPEVTCVVVDVSHEDPEVKFNWYVDGVEVHNAKTKPREEQYASTYRVVSVLTVLHQDWLNGKEYKCKVSNKALPAPIEKTISKAKGQPREPQVYTLPPSRCELTKNQVSLSCAVKGFYPSDIAVEWESNGQPENNYKTTPPVLDSDGSFFLVSKLTVDKSRWQQGNVFSCSVMHEALHNHYTQKSLSLSPDYKDDDDK EPKSSDKTHTCPPCPAPELLGGPSVFLFPPKPKDTLMISRTPEVTCVVVDVSHEDPEVKFNWYVDGVEVHNAKTKPREEQYNSTYRVVSVLTVLHQDWLNGKEYKCKVSNKALPAPIEKTISKAKGQPREPQVCTLPPSRDELTKNQVSLWCLVKGFYPSDIAVEWESNGQPENNYKTTPPVLDSDGSFFLYSKLTVDKSRWQQGNVFSCSVMHEALHNRYTQKSLSLSP light: DIVMTQSPLSLPVTPGEPASISCRSSQSLVHSNRNTYLHWYQQKPGQAPRLLIYKVSNRFSGVPDRFSGSGSGTDFTLKISRVEAEDVGVYYCGQGTQVPYTFGQGTKLEIKRTVAAPSVFIFPPSDEQLKSGTASVVCLLNNFYPREAKVQWKVDNALQSGNSQESVTEQDSKDSTYSLSSTLTLSKADYEKHKVYACEVTHQGLSSPVTKSFNRGEC | 1.59 |
| CE115HA000 K64D one-arm antibody (antibody, human IgG1, kappa, L234A L235A, N297A, name in Kabat numbering, one-arm antibody) heavy: QVQLVESGGGVVQPGRSLRLSCAASGFTFSNAWMHWVRQAPGKGLEWVAQIKAKSNNYATYYAESVDGRFTISRDDSKNSLYLQMNSLKTEDTAVYYCRYVHYGAYYGVDAWGQGTTVTVSSASTKGPSVFPLAPSSKSTSGGTAALGCLVKDYFPEPVTVSWNSGALTSGVHTFPAVLQSSGLYSLSSVVTVPSSSLGTQTYICNVNHKPSNTKVDKKVEPKSCDKTHTCPPCPAPEAAGGPSVFLFPPKPKDTLMISRTPEVTCVVVDVSHEDPEVKFNWYVDGVEVHNAKTKPREEQYASTYRVVSVLTVLHQDWLNGKEYKCKVSNKALPAPIEKTISKAKGQPREPQVYTLPPSRCELTKNQVSLSCAVKGFYPSDIAVEWESNGQPENNYKTTPPVLDSDGSFFLVSKLTVDKSRWQQGNVFSCSVMHEALHNHYTQKSLSLSPDYKDDDDK EPKSSDKTHTCPPCPAPELLGGPSVFLFPPKPKDTLMISRTPEVTCVVVDVSHEDPEVKFNWYVDGVEVHNAKTKPREEQYNSTYRVVSVLTVLHQDWLNGKEYKCKVSNKALPAPIEKTISKAKGQPREPQVCTLPPSRDELTKNQVSLWCLVKGFYPSDIAVEWESNGQPENNYKTTPPVLDSDGSFFLYSKLTVDKSRWQQGNVFSCSVMHEALHNRYTQKSLSLSP light: DIVMTQSPLSLPVTPGEPASISCRSSQSLVHSNRNTYLHWYQQKPGQAPRLLIYKVSNRFSGVPDRFSGSGSGTDFTLKISRVEAEDVGVYYCGQGTQVPYTFGQGTKLEIKRTVAAPSVFIFPPSDEQLKSGTASVVCLLNNFYPREAKVQWKVDNALQSGNSQESVTEQDSKDSTYSLSSTLTLSKADYEKHKVYACEVTHQGLSSPVTKSFNRGEC | 0.76 |
| CE115HA000 H96S one-arm antibody (antibody, human IgG1, kappa, L234A L235A, N297A, name in Kabat numbering, one-arm antibody) heavy: QVQLVESGGGVVQPGRSLRLSCAASGFTFSNAWMHWVRQAPGKGLEWVAQIKAKSNNYATYYAESVKGRFTISRDDSKNSLYLQMNSLKTEDTAVYYCRYVSYGAYYGVDAWGQGTTVTVSSASTKGPSVFPLAPSSKSTSGGTAALGCLVKDYFPEPVTVSWNSGALTSGVHTFPAVLQSSGLYSLSSVVTVPSSSLGTQTYICNVNHKPSNTKVDKKVEPKSCDKTHTCPPCPAPEAAGGPSVFLFPPKPKDTLMISRTPEVTCVVVDVSHEDPEVKFNWYVDGVEVHNAKTKPREEQYASTYRVVSVLTVLHQDWLNGKEYKCKVSNKALPAPIEKTISKAKGQPREPQVYTLPPSRCELTKNQVSLSCAVKGFYPSDIAVEWESNGQPENNYKTTPPVLDSDGSFFLVSKLTVDKSRWQQGNVFSCSVMHEALHNHYTQKSLSLSPDYKDDDDK EPKSSDKTHTCPPCPAPELLGGPSVFLFPPKPKDTLMISRTPEVTCVVVDVSHEDPEVKFNWYVDGVEVHNAKTKPREEQYNSTYRVVSVLTVLHQDWLNGKEYKCKVSNKALPAPIEKTISKAKGQPREPQVCTLPPSRDELTKNQVSLWCLVKGFYPSDIAVEWESNGQPENNYKTTPPVLDSDGSFFLYSKLTVDKSRWQQGNVFSCSVMHEALHNRYTQKSLSLSP light: DIVMTQSPLSLPVTPGEPASISCRSSQSLVHSNRNTYLHWYQQKPGQAPRLLIYKVSNRFSGVPDRFSGSGSGTDFTLKISRVEAEDVGVYYCGQGTQVPYTFGQGTKLEIKRTVAAPSVFIFPPSDEQLKSGTASVVCLLNNFYPREAKVQWKVDNALQSGNSQESVTEQDSKDSTYSLSSTLTLSKADYEKHKVYACEVTHQGLSSPVTKSFNRGEC | 1.15 |
| CE115HA000 K64E one-arm antibody (antibody, human IgG1, kappa, L234A L235A, N297A, name in Kabat numbering, one-arm antibody) heavy: QVQLVESGGGVVQPGRSLRLSCAASGFTFSNAWMHWVRQAPGKGLEWVAQIKAKSNNYATYYAESVEGRFTISRDDSKNSLYLQMNSLKTEDTAVYYCRYVHYGAYYGVDAWGQGTTVTVSSASTKGPSVFPLAPSSKSTSGGTAALGCLVKDYFPEPVTVSWNSGALTSGVHTFPAVLQSSGLYSLSSVVTVPSSSLGTQTYICNVNHKPSNTKVDKKVEPKSCDKTHTCPPCPAPEAAGGPSVFLFPPKPKDTLMISRTPEVTCVVVDVSHEDPEVKFNWYVDGVEVHNAKTKPREEQYASTYRVVSVLTVLHQDWLNGKEYKCKVSNKALPAPIEKTISKAKGQPREPQVYTLPPSRCELTKNQVSLSCAVKGFYPSDIAVEWESNGQPENNYKTTPPVLDSDGSFFLVSKLTVDKSRWQQGNVFSCSVMHEALHNHYTQKSLSLSPDYKDDDDK EPKSSDKTHTCPPCPAPELLGGPSVFLFPPKPKDTLMISRTPEVTCVVVDVSHEDPEVKFNWYVDGVEVHNAKTKPREEQYNSTYRVVSVLTVLHQDWLNGKEYKCKVSNKALPAPIEKTISKAKGQPREPQVCTLPPSRDELTKNQVSLWCLVKGFYPSDIAVEWESNGQPENNYKTTPPVLDSDGSFFLYSKLTVDKSRWQQGNVFSCSVMHEALHNRYTQKSLSLSP light: DIVMTQSPLSLPVTPGEPASISCRSSQSLVHSNRNTYLHWYQQKPGQAPRLLIYKVSNRFSGVPDRFSGSGSGTDFTLKISRVEAEDVGVYYCGQGTQVPYTFGQGTKLEIKRTVAAPSVFIFPPSDEQLKSGTASVVCLLNNFYPREAKVQWKVDNALQSGNSQESVTEQDSKDSTYSLSSTLTLSKADYEKHKVYACEVTHQGLSSPVTKSFNRGEC | 0.84 |
| CE115HA000 K64A one-arm antibody (antibody, human IgG1, kappa, L234A L235A, N297A, name in Kabat numbering, one-arm antibody) heavy: QVQLVESGGGVVQPGRSLRLSCAASGFTFSNAWMHWVRQAPGKGLEWVAQIKAKSNNYATYYAESVAGRFTISRDDSKNSLYLQMNSLKTEDTAVYYCRYVHYGAYYGVDAWGQGTTVTVSSASTKGPSVFPLAPSSKSTSGGTAALGCLVKDYFPEPVTVSWNSGALTSGVHTFPAVLQSSGLYSLSSVVTVPSSSLGTQTYICNVNHKPSNTKVDKKVEPKSCDKTHTCPPCPAPEAAGGPSVFLFPPKPKDTLMISRTPEVTCVVVDVSHEDPEVKFNWYVDGVEVHNAKTKPREEQYASTYRVVSVLTVLHQDWLNGKEYKCKVSNKALPAPIEKTISKAKGQPREPQVYTLPPSRCELTKNQVSLSCAVKGFYPSDIAVEWESNGQPENNYKTTPPVLDSDGSFFLVSKLTVDKSRWQQGNVFSCSVMHEALHNHYTQKSLSLSPDYKDDDDK EPKSSDKTHTCPPCPAPELLGGPSVFLFPPKPKDTLMISRTPEVTCVVVDVSHEDPEVKFNWYVDGVEVHNAKTKPREEQYNSTYRVVSVLTVLHQDWLNGKEYKCKVSNKALPAPIEKTISKAKGQPREPQVCTLPPSRDELTKNQVSLWCLVKGFYPSDIAVEWESNGQPENNYKTTPPVLDSDGSFFLYSKLTVDKSRWQQGNVFSCSVMHEALHNRYTQKSLSLSP light: DIVMTQSPLSLPVTPGEPASISCRSSQSLVHSNRNTYLHWYQQKPGQAPRLLIYKVSNRFSGVPDRFSGSGSGTDFTLKISRVEAEDVGVYYCGQGTQVPYTFGQGTKLEIKRTVAAPSVFIFPPSDEQLKSGTASVVCLLNNFYPREAKVQWKVDNALQSGNSQESVTEQDSKDSTYSLSSTLTLSKADYEKHKVYACEVTHQGLSSPVTKSFNRGEC | 0.81 |
| CE115HA000 H96Y one-arm antibody (antibody, human IgG1, kappa, L234A L235A, N297A, name in Kabat numbering, one-arm antibody) heavy: QVQLVESGGGVVQPGRSLRLSCAASGFTFSNAWMHWVRQAPGKGLEWVAQIKAKSNNYATYYAESVKGRFTISRDDSKNSLYLQMNSLKTEDTAVYYCRYVYYGAYYGVDAWGQGTTVTVSSASTKGPSVFPLAPSSKSTSGGTAALGCLVKDYFPEPVTVSWNSGALTSGVHTFPAVLQSSGLYSLSSVVTVPSSSLGTQTYICNVNHKPSNTKVDKKVEPKSCDKTHTCPPCPAPEAAGGPSVFLFPPKPKDTLMISRTPEVTCVVVDVSHEDPEVKFNWYVDGVEVHNAKTKPREEQYASTYRVVSVLTVLHQDWLNGKEYKCKVSNKALPAPIEKTISKAKGQPREPQVYTLPPSRCELTKNQVSLSCAVKGFYPSDIAVEWESNGQPENNYKTTPPVLDSDGSFFLVSKLTVDKSRWQQGNVFSCSVMHEALHNHYTQKSLSLSPDYKDDDDK EPKSSDKTHTCPPCPAPELLGGPSVFLFPPKPKDTLMISRTPEVTCVVVDVSHEDPEVKFNWYVDGVEVHNAKTKPREEQYNSTYRVVSVLTVLHQDWLNGKEYKCKVSNKALPAPIEKTISKAKGQPREPQVCTLPPSRDELTKNQVSLWCLVKGFYPSDIAVEWESNGQPENNYKTTPPVLDSDGSFFLYSKLTVDKSRWQQGNVFSCSVMHEALHNRYTQKSLSLSP light: DIVMTQSPLSLPVTPGEPASISCRSSQSLVHSNRNTYLHWYQQKPGQAPRLLIYKVSNRFSGVPDRFSGSGSGTDFTLKISRVEAEDVGVYYCGQGTQVPYTFGQGTKLEIKRTVAAPSVFIFPPSDEQLKSGTASVVCLLNNFYPREAKVQWKVDNALQSGNSQESVTEQDSKDSTYSLSSTLTLSKADYEKHKVYACEVTHQGLSSPVTKSFNRGEC | 6.67 |
